T1: RAB11FIP3(2–756)::Strep-tag II (human, UniProt O75154 2-756)
T1 construct: source: E. coli BL21, purified (Ni-NTA, TEV cleavage, Strep-Tactin; dialysis or SEC); not shown: 6xHis::MBP, N-terminal, cleaved; Strep-tag II (after linker GSGSGR), C-terminal, kept
T1 sequence (looked up): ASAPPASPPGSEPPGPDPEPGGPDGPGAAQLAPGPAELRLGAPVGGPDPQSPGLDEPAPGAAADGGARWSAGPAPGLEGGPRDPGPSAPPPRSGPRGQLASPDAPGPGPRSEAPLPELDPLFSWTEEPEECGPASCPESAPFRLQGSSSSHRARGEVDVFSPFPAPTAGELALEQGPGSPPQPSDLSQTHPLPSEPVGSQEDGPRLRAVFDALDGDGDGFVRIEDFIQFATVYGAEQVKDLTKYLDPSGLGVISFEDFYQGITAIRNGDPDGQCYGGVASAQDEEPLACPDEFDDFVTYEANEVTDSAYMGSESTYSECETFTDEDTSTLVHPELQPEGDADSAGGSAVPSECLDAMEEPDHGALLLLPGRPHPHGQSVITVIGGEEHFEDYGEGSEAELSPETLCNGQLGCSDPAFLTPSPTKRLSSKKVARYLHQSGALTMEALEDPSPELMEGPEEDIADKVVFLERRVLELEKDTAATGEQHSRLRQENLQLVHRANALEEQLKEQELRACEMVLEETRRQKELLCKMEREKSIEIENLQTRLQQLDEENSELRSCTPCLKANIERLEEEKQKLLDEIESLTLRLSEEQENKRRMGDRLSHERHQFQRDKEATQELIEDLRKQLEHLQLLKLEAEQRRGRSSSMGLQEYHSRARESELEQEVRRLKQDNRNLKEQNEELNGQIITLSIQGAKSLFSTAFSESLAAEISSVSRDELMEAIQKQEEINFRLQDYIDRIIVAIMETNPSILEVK

T2: SPDL1(2–359)::Strep-tag II (human, UniProt Q96EA4 2-359)
T2 construct: human Spindly (SPDL1), N-terminal region, residues 2-359; also called Spindly; source: E. coli BL21, purified (Ni-NTA, TEV cleavage, Strep-Tactin; dialysis or SEC); not shown: 6xHis::MBP, N-terminal, cleaved; Strep-tag II (after linker GSGSGR), C-terminal, kept
T2 sequence (looked up): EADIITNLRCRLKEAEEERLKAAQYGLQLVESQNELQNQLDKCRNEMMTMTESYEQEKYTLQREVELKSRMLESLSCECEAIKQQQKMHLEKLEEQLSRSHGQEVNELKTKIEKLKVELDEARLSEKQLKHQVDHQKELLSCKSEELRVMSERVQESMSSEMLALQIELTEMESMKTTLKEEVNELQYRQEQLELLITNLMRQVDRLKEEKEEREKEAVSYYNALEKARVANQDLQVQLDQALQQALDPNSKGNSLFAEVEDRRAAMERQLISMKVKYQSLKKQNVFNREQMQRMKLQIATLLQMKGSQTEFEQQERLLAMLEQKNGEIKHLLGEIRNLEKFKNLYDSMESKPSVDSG


Tests used:
[1] = target: T1, RAB11FIP3(2–756)::Strep-tag II; assay: pull-down; GST::LIC::6xHis (50 pmol) with 50 or 250 pmol adaptor and glutathione agarose, 1 h at 4°C, 150 μL of 50 mM HEPES, 100 mM NaCl, 5 mM DTT, pH 7.5, 0.1% Tween 20; Coomassie staining and immunoblot against Strep-tag II; settings: both partners purified
[2] = target: T2, SPDL1(2–359)::Strep-tag II; assay: as above; settings: both partners purified

Row | binding result [1] | binding result [2] | Binder
1 | binds | binds | GST::LIC1(402–471)::6xHis (domain or fragment, human, single N-terminal tryptophan added in the construct; human dynein light intermediate chain 1 (DYNC1LI1), residues 402-471; source: E. coli BL21, purified (glutathione agarose, Ni-NTA; dialysis or SEC); not shown: GST, N-terminal, kept; 6xHis (after linker GSGSG), C-terminal, kept) WPGGSPRTPNRSVSSNVASVSPIPAGSKKIDPNMKAGATSEGVLANFFNSLLSKKTGSPGGPGVSGGSPAG
2 | binds | binds | GST::LIC1(414–471)::6xHis (domain or fragment, human, single N-terminal tryptophan added in the construct; human dynein light intermediate chain 1 (DYNC1LI1), residues 414-471; source: E. coli BL21, purified (glutathione agarose, Ni-NTA; dialysis or SEC); not shown: GST, N-terminal, kept; 6xHis (after linker GSGSG), C-terminal, kept) WSSNVASVSPIPAGSKKIDPNMKAGATSEGVLANFFNSLLSKKTGSPGGPGVSGGSPAG
3 | binds | binds | GST::LIC2(375–450)::6xHis (domain or fragment, human, single N-terminal tryptophan added in the construct; source: E. coli BL21, purified (glutathione agarose, Ni-NTA; dialysis or SEC); not shown: GST, N-terminal, kept; 6xHis (after linker GSGSG), C-terminal, kept) WATPTRASESPARGPSGSPRTQGRGGPASVPSSSPGTSVKKPDPNIKNNAASEGVLASFFNSLLSKKTGSPGSPGAG
4 | binds | binds | GST::LIC2(375–492)::6xHis (domain or fragment, human, single N-terminal tryptophan added in the construct; also called LIC2-C; source: E. coli BL21, purified (glutathione agarose, Ni-NTA; dialysis or SEC); not shown: GST, N-terminal, kept; 6xHis (after linker GSGSG), C-terminal, kept) WATPTRASESPARGPSGSPRTQGRGGPASVPSSSPGTSVKKPDPNIKNNAASEGVLASFFNSLLSKKTGSPGSPGAGGVQSTAKKSGQKTVLSNVQEELDRMTRKPDSMVTNSSTENEA

From PMC6336354, “A transient helix in the disordered region of dynein light intermediate chain links the motor to structurally diverse adaptors for cargo transport” (PLoS Biology, 2019)
